± gives the uncertainty stated by the source.
Assay: self-splicing fitness, log relative to wild type (ln ratio); higher = more splicing; Tetrahymena group I intron in knt gene, E. coli kanamycin selection, DiMSum; sequences stand for … in CUCUCU…GGAGGGAAAAGUUAUCAGGCAUGCACCUGGUAGCUAGUCUUUAAACCAAUAGAUUGCAUCGGUUUAAAAGGCAAGACCGUCAAAUUGCGGGAAAGGGGUCAACAGCCGUUCAGUACCAAGUCUCAGGGGAAACUUUGAGAUGGCCUUGCAAAGGGUAUGGUAAUAAGCUGACGGACAUGGUCCUAACCACGCAGCCAAGUCCUAAGUCAACAGAUCUUCUGUUGAUAUGGAUGCAGUUCACAGACUAAAUGUCGGUCGGGGAAGAUGUAUUCUUCUCAUAAGAUAUAGUCGGACCUCUCCUUAAUGGGAGCUAGCGGAUGAAGUGAUGCAACACUGGAGCCGCUGGGAACUAAUUUGUAUGCGAAAGUAUAUUGAUUAGUUUUGGAGUACUCGUGGUCG
Method in brief: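 Six replicate transformations of E. coli BL21(DE3) with a pET-22b(+) library were grown overnight at 37°C or 30°C. The library randomised all eight P1ex-region intron nucleotides, the intron lying in the knt kanamycin-resistance gene, and plates were LB agar with or without 25 μg/mL kanamycin plus 100 μg/mL carbenicillin, 50 μM IPTG and 0.2% rhamnose. Pooled colonies were amplicon-sequenced on an Illumina HiSeq 2500, and fitness is the DiMSum error-weighted combination of wild-type-normalised replicate fold changes, kanamycin versus none.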

Sequence	self-splicing fitness (ln) (30 °C)	self-splicing fitness (ln) (37 °C)
CGUUAGCAAUAUUACGACCA	-0.453 ± 0.17	-0.925 ± 0.2
CGUUAGCAAUAUUACGACGA	-1.36 ± 0.19	-1.3 ± 0.19
CGUUAGCAAUAUUACGAUGG	-0.465 ± 0.094	-0.125 ± 0.13
CGUUAGCAAUAUUACGCCAU	–	-1.61 ± 0.2
CGUUAGCAAUAUUACGCCCG	-0.798 ± 0.29	–
CGUUAGCAAUAUUACGCGAG	-2.42 ± 0.29	–
CGUUAGCAAUAUUACGCGGA	-2.82 ± 0.47	-1.31 ± 0.17
CGUUAGCAAUAUUACGCUUC	–	-2.27 ± 0.36
CGUUAGCAAUAUUACGGACA	-0.317 ± 0.08	0.172 ± 0.1
CGUUAGCAAUAUUACGGACG	-4.39 ± 0.36	-2.23 ± 0.25
CGUUAGCAAUAUUACGGCAG	-0.122 ± 0.1	0.3 ± 0.12
CGUUAGCAAUAUUACGGUGU	-3.37 ± 0.19	-2.29 ± 0.17
CGUUAGCAAUAUUACGUAAA	-2.88 ± 0.22	-1.88 ± 0.26
CGUUAGCAAUAUUACGUACG	-2.89 ± 0.36	-2.09 ± 0.5
CGUUAGCAAUAUUACGUCCA	-2.04 ± 0.41	-1.13 ± 0.48
CGUUAGCAAUAUUACGUCCU	-1.24 ± 0.1	-0.9 ± 0.15
CGUUAGCAAUAUUACGUGGA	-2.98 ± 0.18	-1.68 ± 0.13
CGUUAGCAAUAUUACGUUAC	-2.82 ± 0.32	-2.83 ± 0.43
CGUUAGCAAUAUUACGUUGA	-3.1 ± 0.22	-2.25 ± 0.17
CUAAAGCAAUAUUACGAACG	0.195 ± 0.089	0.868 ± 0.12
CUAAAGCAAUAUUACGACGA	-2.38 ± 0.13	-0.919 ± 0.15
CUAAAGCAAUAUUACGACUG	0.0292 ± 0.098	0.417 ± 0.12
CUAAAGCAAUAUUACGAGGC	-3.6 ± 0.16	-1.92 ± 0.16
CUAAAGCAAUAUUACGAUCA	-2.12 ± 0.18	-0.711 ± 0.22
CUAAAGCAAUAUUACGCGAC	-0.482 ± 0.14	-0.124 ± 0.17

Sequence	self-splicing fitness (ln) (30 °C)	self-splicing fitness (ln) (37 °C)
CUAAAGCAAUAUUACGCGCA	-2.92 ± 0.23	-1.64 ± 0.33
CUAAAGCAAUAUUACGCUGA	-3.03 ± 0.18	-2.95 ± 0.29
CUAAAGCAAUAUUACGCUUA	-3.75 ± 0.37	-2.75 ± 0.39
CUAAAGCAAUAUUACGCUUU	-4.2 ± 0.33	-2.35 ± 0.29
CUAAAGCAAUAUUACGGAGG	-1.82 ± 0.1	0.0636 ± 0.12
CUAAAGCAAUAUUACGGCAC	-2.96 ± 0.22	–
CUAAAGCAAUAUUACGGCUC	-3.26 ± 0.4	–
CUAAAGCAAUAUUACGGGCG	-0.0163 ± 0.069	-0.208 ± 0.081
CUAAAGCAAUAUUACGGGUU	-4.13 ± 0.28	-3.49 ± 0.33
CUAAAGCAAUAUUACGGUAU	-3.53 ± 0.16	-2.58 ± 0.17
CUAAAGCAAUAUUACGGUCA	-2.46 ± 0.18	-1.22 ± 0.2
CUAAAGCAAUAUUACGGUUU	-3.29 ± 0.2	-2.81 ± 0.28
CUAAAGCAAUAUUACGUACA	-2.52 ± 0.14	-0.872 ± 0.18
CUAAAGCAAUAUUACGUGCG	-0.674 ± 0.093	0.0651 ± 0.12
CUAAAGCAAUAUUACGUUCG	0.342 ± 0.064	0.478 ± 0.082
CUAAAGCAAUAUUACGUUGC	-3.49 ± 0.18	-2.45 ± 0.22
CUACAGCAAUAUUACGAAAU	-3.72 ± 0.16	-2.82 ± 0.17
CUACAGCAAUAUUACGAGUC	-3.63 ± 0.24	-3.18 ± 0.38
CUACAGCAAUAUUACGAUAA	-3.02 ± 0.15	-1.49 ± 0.12
CUACAGCAAUAUUACGAUAG	-2.04 ± 0.12	-1.16 ± 0.12
CUACAGCAAUAUUACGAUGG	-1.44 ± 0.053	-0.971 ± 0.077
CUACAGCAAUAUUACGCGCG	-1.36 ± 0.082	-0.796 ± 0.11
CUACAGCAAUAUUACGGCCA	-3 ± 0.28	–
CUACAGCAAUAUUACGGGGA	-3.52 ± 0.26	-1.79 ± 0.16

Source: the supplement of paper PMC7877785
